# Source: patent publication US20170226158A1 (AstraZeneca / MedImmune, published 2017)
# Biological target: T1, SUMO-L-Myc fusion protein (recombinant bHLHZip domain of L-Myc fused with a small ubiquitin-like modifier … (UniProt P12524 281-364))
# T1 construct: not shown: small ubiquitin-like modifier (SUMO) protein
# T1 sequence (looked up): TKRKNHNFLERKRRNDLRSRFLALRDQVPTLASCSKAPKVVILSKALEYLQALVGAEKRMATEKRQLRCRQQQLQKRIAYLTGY
# Assay: second phage ELISA on coated antigens
row,Binder,binding result
1,"DARPin 1 (template L-Myc DARPin, net charge -13) (designed binder, also called tDARPin S-13; S-13 tDARPin) DLGKKLLEAARAGQDDEVRILMANGADVNAMDQYGFTPLHLAAWYGHLEIVEVLLKHGADVNAKDVHGFTPLHLAAWTGHLEIVEVLLKNGADVNARDNEGSTPLHLAALAGHLEIVEVLLKNGADVNAQDKFGKTAFDISIDNGNEDLAEILQKL",binds

# Biological target: T2, KRAS (UniProt P01116-2 1-188, limits assumed)
# T2 construct: Target antigen in phage ELISA; construct not described
# Assay: phage ELISA on target antigen, signal as % of parental WT
row,Binder,% antigen binding activity retained (relative to parental)
1,"KRAS mut8 (designed binder, Net charge 12; Tested on phage) DLGKKLLEAARAGQNDKVRILMANGAKVNARDHTGFTPLHLAAQHGHRKIVKVLLKNGAKVNAVDWFGRTPLHLAAKMGHLEIVKVLLKHGANVKADDHNGRTPLHLAAWEGHLEIVKVLLKYGAKVNAQDKFGKTAFDISIENGNEKLAKILQKL",> 50%
2,"KRAS mut11 (designed binder, Net charge 16; Tested on phage) DLGKKLLEAARAGQNDKVRILMANGAKVNARDHTGFTPLHLAAQHGHRKIVKVLLKNGAKVNAVDWFGRTPLHLAAKMGHRKIVKVLLKHGADVNADDHNGRTPLHLAAWEGHRKIVKVLLKYGAKVNAQDKFGKTAFDISIENGNEKLAKILQKL",> 50%
3,"KRAS mut6 (designed binder, Net charge 10; Tested on phage) DLGKKLLEAARAGQNDKVRILMANGAKVNARDHTGFTPLHLAAQHGHRKIVKVLLKNGADVNAVDWFGRTPLHLAAKMGHLEIVKVLLKHGAKVNADDHNGRTPLHLAAWEGHLEIVKVLLKYGAKVNAQDKFGKTAFDISIENGNEKLAKILQKL",> 50%
4,"KRAS mut7 (designed binder, Net charge 11; Tested on phage) DLGKKLLEAARAGQNDKVRILMANGANVNARDHTGFTPLHLAAQHGHLEIVKVLLKNGAKVNAVDWFGRTPLHLAAKMGHRKIVKVLLKHGANVKADDHNGRTPLHLAAWEGHLEIVKVLLKYGAKVNAQDKFGKTAFDISIENGNEKLAKILQKL",> 50%
5,"KRAS mut10 (designed binder, Net charge 15; Tested on phage) DLGKKLLEAARAGQNDKVRILMANGAKVNARDHTGFTPLHLAAQHGHRKIVKVLLKNGAKVNAVDWFGRTPLHLAAKMGHLEIVKVLLKHGANVKADDHNGRTPLHLAAWEGHRKIVKVLLKYGAKVNAQDKFGKTAFDISVENGNEKLAKILQKL",> 50%
6,"KRAS mut9 (designed binder, Net charge 14; Tested on phage) DLGKKLLEAARAGQNDKVRILMANGAKVNARDHTGFTPLHLAAQHGHRKIVKVLLKNGANVKAVDWFGRTPLHLAAKMGHRKIVEVLLKHGANVKADDHNGRTPLHLAAWEGHRKIVKVLLKYGADVNAQDKFGKTAFDISIENGNEKLAKILQKL",> 50%

# Biological target: T3, CD73 (UniProt P21589 27-549, limits assumed)
# T3 construct: Target antigen in phage ELISA; construct not described
# T3 sequence (looked up): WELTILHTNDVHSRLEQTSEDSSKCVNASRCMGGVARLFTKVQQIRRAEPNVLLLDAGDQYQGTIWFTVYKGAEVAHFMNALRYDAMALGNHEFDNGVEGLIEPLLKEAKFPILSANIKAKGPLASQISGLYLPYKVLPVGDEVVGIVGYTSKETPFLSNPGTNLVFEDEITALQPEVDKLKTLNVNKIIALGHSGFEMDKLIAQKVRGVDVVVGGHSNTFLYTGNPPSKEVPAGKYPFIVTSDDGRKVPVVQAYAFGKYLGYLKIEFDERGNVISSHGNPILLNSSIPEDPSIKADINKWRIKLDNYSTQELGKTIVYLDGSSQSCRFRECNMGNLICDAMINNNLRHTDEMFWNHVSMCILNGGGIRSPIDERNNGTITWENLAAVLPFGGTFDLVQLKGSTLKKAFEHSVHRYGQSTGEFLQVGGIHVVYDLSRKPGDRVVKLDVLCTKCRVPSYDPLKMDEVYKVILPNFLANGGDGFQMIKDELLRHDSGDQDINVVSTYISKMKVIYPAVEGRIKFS
# Assay: as above
row,Binder,% antigen binding activity retained (relative to parental)
1,"CD73 mut11 (designed binder, Net charge 11; Tested on phage) DLGKKLLEAARAGQNDKVRILMANGAKVNAADTWGRTPLHLAAYHGHLEIVKVLLKHGANVNAEDIHGFTPLHLAALWGHRKIVKVLLKNGAKVNAVDWYGHTPLHLAAIDGHRKIVKVLLKHGAKVNAQDKFGKTAFDISIENGNEKLAKILQKL",> 50%

# Biological target: T1, SUMO-L-Myc fusion protein (recombinant …)
# Assay: as above
row,Binder,% antigen binding activity retained (relative to parental)
1,"LMYC mut8 (designed binder, Net charge 11; Tested on phage) DLGKKLLEAARAGQNDKVRILMANGAKVNAMDQYGFTPLHLAAWYGHRKIVKVLLKHGANVKAKDVHGFTPLHLAAWTGHLEIVKVLLKNGANVKARDNEGSTPLHLAALAGHLEIVKVLLKNGAKVNAQDKFGKTAFDISIENGNEKLAKILQKL",> 50%
2,"LMYC mut9 (designed binder, Net charge 11; Tested on phage) DLGKKLLEAARAGQNDKVRILMANGAKVNAMDQYGFTPLHLAAWYGHRKIVKVLLKHGANVKAKDVHGFTPLHLAAWTGHLEIVKVLLKNGAKVNARDNEGSTPLHLAALAGHLEIVKVLLKNGAKVNAQDKFGKTAFDISIENGNEKLAKILQKL",> 50%
3,"LMYC mut7 (designed binder, Tested on phage) DLGKKLLEAARAGQNDKVRILMANGANVKAMDQYGFTPLHLAAWYGHRKIVKVLLKHGANVKAKDVHGFTPLHLAAWTGHLEIVEVLLKNGADVNARDNEGSTPLHLAALAGHRKIVKVLLKNGAKVNAQDKFGKTAFDISIENGNEKLAKILQKL",> 50%
4,"LMYC mut11 (designed binder, Net charge 12; Tested on phage) DLGKKLLEAARAGQNDKVRILMANGADVNAMDQYGFTPLHLAAWYGHRKIVKVLLKHGANVKAKDVHGFTPLHLAAWTGHRKIVKVLLKNGANVKARDNEGSTPLHLAALAGHLEIVKVLLKNGAKVNAQDKFGKTAFDISIENGNEKLAKILQKL",> 50%
